Laboratory results as given in PMC5052118 (Nature structural & molecular biology, 2016).
Where two headings read alike, the source gives them in different places.

Key:
CchWH = CchWH (Staphylococcus aureus USA300, UniProt A0A0H2XHF3 436-595); assay: EMSA
Cch [1] = biological target: T1, Cch (Staphylococcus aureus USA300, UniProt A0A0H2XHF3 1-595); assay: EMSA
crystal structure = biological target: the molecule itself; assay: crystal structure
LP1413 = biological target: T2, LP1413 (Staphylococcus aureus USA300, UniProt Q0WXP5 1-96); assay: EMSA
T2 sequence: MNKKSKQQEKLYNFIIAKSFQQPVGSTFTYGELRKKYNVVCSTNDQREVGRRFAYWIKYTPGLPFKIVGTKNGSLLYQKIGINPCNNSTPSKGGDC

Cch [2] = biological target: T1, Cch; assay: EMSA; remark: listed apart in the source

B1: scc-emsa-3F/4R 60 bp duplex (3' end of cch) (dsDNA)
DNA 1: TTTTAAATCCGCTAATGAAGGGATAGGCCCTTCAGGAGTTCACGAAGATTTCTAATTGTC
DNA 2: GACAATTAGAAATCTTCGTGAACTCCTGAAGGGCCTATCCCTTCATTAGCGGATTTAAAA
B1: binds (CchWH); binds (Cch [1]).

B2: Selenomethionine-derivatized Cch-6xHis (enzyme)
chain: MSYTLFEIGPFALDSFGWKETIPPKKDGDSEKVVRMASPIIVNARFSDPITGVEKLIITNNNGKKDIFESDILTTRNLPSLIKYGYSINEKYIRSLSYALQLMRDRLPLSELYEGVGILETPFGYLISLDKVLKSIQFNQSSPSYPIVDSAYDLTPKGTFDNWFNMYIDEVKGHLLLELAVIFGISALVTSFLKHKHEIEFAGILFSFTGQSSTGKSTAAALAVSVAGNPTKGNETLFRSWNATRNALEGYLSNNYGIPIVFDELSSTTLRDTTGLLYSIAEGQGRQRSNVHGEVKTPKNWGTSVISTSEYSIFNDSAQNDGLRVRTIEINEQFTTNATNADNIKKAVALNYGHVLPLVAKYLINREDEVIQWFYKEVDWFEAKLKDETNNTGIRMFKRYAVITTSAKILGRVLSTDIDIANIRDYFIDYHTHTVSERSLADKAIDVIIQFVAQNRGKFSDEGALKNMFENYGLISLKDDHIEVKIIANVFKQMLNNHQFQDVNNVVNALRDKGFILADRGRQTTKRSVKDNSGKKQSLVFYHLKLDVEFASILGLTKDKSLLQNWTPSNDNKAAKELFKSANEGIGPSGVHEDF
modifications: selenomethionine in place of methionine
With B2 the “stoichiometry N” value (crystal structure) was 6.

B3: iter-int-1F ssDNA 40 nt (ssDNA)
DNA: GAGTAATGATATGTGGCTATGTCTTAATATATGTGAAGAA
B3: binds (LP1413).

B4: iter-int-1F/inter-int-2R 40 bp duplex (dsDNA)
DNA 1: B3 DNA
DNA 2: TTCTTCACATATATTAAGACATAGCCACATATCATTACTC
B4: no binding (LP1413).

B5: HELA-8R ssDNA (ssDNA)
DNA: CGCTTTAAAAGAAGTCAACGTCTTACCACTTCCAGTTGTATGCCATACATATCC
B5: binds (Cch [2]).
